Experimental findings from publication PMC3139566 (Biochemistry, 2011) are described below.

The target in test [1] is T1, Fe65 N-term-WW-PID1-PID2 1-662 (human, UniProt O00213-2 1-662).
T1 sequence (looked up): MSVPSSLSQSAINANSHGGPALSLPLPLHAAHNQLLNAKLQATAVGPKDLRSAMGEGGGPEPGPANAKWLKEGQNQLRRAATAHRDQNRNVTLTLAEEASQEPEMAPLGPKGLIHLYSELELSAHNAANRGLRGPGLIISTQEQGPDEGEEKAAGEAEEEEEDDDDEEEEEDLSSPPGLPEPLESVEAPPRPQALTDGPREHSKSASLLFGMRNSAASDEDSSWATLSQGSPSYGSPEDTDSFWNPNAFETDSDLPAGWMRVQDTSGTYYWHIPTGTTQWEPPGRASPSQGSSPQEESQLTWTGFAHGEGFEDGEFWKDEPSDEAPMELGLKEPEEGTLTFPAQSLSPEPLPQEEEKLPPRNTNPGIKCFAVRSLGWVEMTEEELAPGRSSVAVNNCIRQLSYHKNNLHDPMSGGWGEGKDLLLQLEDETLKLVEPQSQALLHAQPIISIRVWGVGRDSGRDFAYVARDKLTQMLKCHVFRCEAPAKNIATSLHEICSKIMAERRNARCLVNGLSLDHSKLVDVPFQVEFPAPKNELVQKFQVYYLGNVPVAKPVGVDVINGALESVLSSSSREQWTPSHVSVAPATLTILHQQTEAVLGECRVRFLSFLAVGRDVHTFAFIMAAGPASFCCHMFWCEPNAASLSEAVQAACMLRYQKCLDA
The test is described as follows: SPR. In general terms: In SPR one partner is held on a chip, and binding of the other changes the refractive index at the surface.

The next test concerns the target T2, Fe65 WW-PID1 236-512 (human, UniProt O00213-2 236-512).
T2 sequence (looked up): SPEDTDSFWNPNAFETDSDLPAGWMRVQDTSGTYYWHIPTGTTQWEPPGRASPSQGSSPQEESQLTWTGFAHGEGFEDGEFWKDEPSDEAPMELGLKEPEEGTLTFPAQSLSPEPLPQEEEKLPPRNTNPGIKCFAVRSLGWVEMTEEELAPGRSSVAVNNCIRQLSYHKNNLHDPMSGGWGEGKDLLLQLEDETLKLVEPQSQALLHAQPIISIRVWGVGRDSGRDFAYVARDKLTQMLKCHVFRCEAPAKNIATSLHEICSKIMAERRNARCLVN
The test is described as follows: fluorescence polarisation. On the technique in general: Fluorescence polarisation rises when a labelled molecule tumbles more slowly, as on binding a larger partner.

The target in test [2] is T3, Fe65 WW-PID1-PID2 236-662 (human, UniProt O00213-2 236-662).
T3 sequence (looked up): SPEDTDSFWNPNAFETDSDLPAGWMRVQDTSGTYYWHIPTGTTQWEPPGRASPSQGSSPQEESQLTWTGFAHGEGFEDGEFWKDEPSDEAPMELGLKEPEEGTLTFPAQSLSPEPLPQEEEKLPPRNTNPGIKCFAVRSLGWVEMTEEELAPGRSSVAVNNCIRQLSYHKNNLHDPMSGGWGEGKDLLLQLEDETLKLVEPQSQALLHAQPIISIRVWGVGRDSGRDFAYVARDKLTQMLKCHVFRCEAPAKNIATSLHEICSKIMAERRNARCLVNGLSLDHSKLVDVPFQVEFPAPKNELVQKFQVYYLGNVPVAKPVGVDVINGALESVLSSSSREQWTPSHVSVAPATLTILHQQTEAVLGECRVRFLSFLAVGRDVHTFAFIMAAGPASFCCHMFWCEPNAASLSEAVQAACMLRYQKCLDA
The test is described as follows: fluorescence polarisation.

Where no end group is shown, it is not given here. [ ]: non-standard residue; d: D form. pY = N[C@@H](Cc1ccc(OP(=O)(O)O)cc1)C(=O)O

B1: APP Intracellular Domain (AICD, residues 649-695), biotinylated at the N-terminal cysteine (domain or fragment)
chain: GSKLCKKKQYTSIHHGVVEVDAAVTPEERHLSKMQQNGYENPTYKFFEQMQN
modifications: biotin (biotin-maleimide) on the N-terminal cysteine
The term Kd denotes the free concentration of one partner at which half of the binding sites on the other are occupied at equilibrium, for simple one-to-one binding. Read a low Kd as tighter binding. For the molecule B1, in test [1], the Kd amounted to 2.5 ± 0.35 µM.

B2: LRP4488 phosphorylated at Y4507 (pYLRP4488) labeled with Oregon Green 488 (domain or fragment, human)
chain: C(Oregon Green 488 maleimide)LDADFALDPDKPTNFTNPV[pY]ATLYMGGHGSRHSLASTDEKRELLGRGPEDEIGDPLA
In the case of B2, the results for the dissociation constant (Kd) (with Fe65 WW-PID1 236-512; in test [2]) were 66.7 µM and 48.3 µM, respectively.
